# According to article PMC8944910:
# Read-outs that look alike come from different tables or passages of the source.
# Assays:
# [1] = biological target: His-tagged eukaryotic translation initiation factor 1 (His–eIF1), labelled with NT650 (UniProt P32911); assay: temperature-related intensity change assay
# [2] = biological target: His-tagged eukaryotic translation initiation factor 1 (His–eIF1), labelled with NT650 (UniProt P32911); assay: temperature-related intensity change assay; remark: listed apart in the source
# UniProt P32911, sequence (P32911 whole entry): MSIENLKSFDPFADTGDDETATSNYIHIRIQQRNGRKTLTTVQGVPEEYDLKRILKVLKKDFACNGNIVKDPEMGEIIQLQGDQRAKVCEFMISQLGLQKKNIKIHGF
Substance,Kd [1],Kd [2]
40S ribosomal subunit from wild-type control (BY4741 / BCD1) yeast cells (from UniProt P05750 1-240) (complex),23 nM,–
hypo-2′-O-methylated 40S ribosomal subunit from bcd1-D72A yeast cells (from UniProt P05750 1-240) (complex),64 nM,63 nM
